Assay results taken from patent US6967100B2, “Pancreatic islet cell growth factors” (The Walter and Eliza Hall Institute of Medical Research, priority 2000, dated 2005).

B1: Activin A: recombinant activin A from R&D Systems (protein, UniProt P08476 311-426, looked up)
Inhibin beta A chain: GLECDGKVNICCKKQFFVSFKDIGWNDWIIAPSGYHANYCEGECPSHIAGTSGSSLSFHSTVINHYRMRGHSPFANLKSCCVPTKLRPMSMLYYDDGQNIIKKDIQNMIVEECGCS
B2: BMP 6: recombinant human BMP 6 purchased from R&D Systems (protein, UniProt P22004 375-513, looked up)
Bone morphogenetic protein 6: SASSRRRQQSRNRSTQSQDVARVSSASDYNSSELKTACRKHELYVSFQDLGWQDWIIAPKGYAANYCDGECSFPLNAHMNATNHAIVQTLVHLMNPEYVPKPCCAPTKLNAISVLYFDDNSNVILKKYRNMVVRACGCH
B3: BMP 5: recombinant human BMP 5 purchased from R&D Systems (protein, UniProt P22003 317-454, looked up)
Bone morphogenetic protein 5: AANKRKNQNRNKSSSHQDSSRMSSVGDYNTSEQKQACKKHELYVSFRDLGWQDWIIAPEGYAAFYCDGECSFPLNAHMNATNHAIVQTLVHLMFPDHVPKPCCAPTKLNAISVLYFDDSSNVILKKYRNMVVRSCGCH

Tests used:
Type in all cases: cell-based
[1] = test system: E15.5 CBA mouse fetal pancreas cells; assay: Cystic colony formation of E15.5 fetal mouse pancreas cells in laminin-1 overlay culture; settings: for concentration of maximal stimulation of colony formation: day 6, fewer colonies at higher concentrations; for formation of cystic colonies in the presence of laminin-1: up to 6 days
Protocol: Pancreata were dissected from embryonic day (E)15.5 CBA mouse fetuses and dissociated into single cells as described (Jiang et al., 1999). Briefly, dissected pancreas was digested with trypsin/EDTA for 15 minutes at 37° C. in a shaking water bath. Cells were counted in a haemocytometer and viability determined by trypan blue dye exclusion. Each fetal pancreas yielded 50,000 viable cells (48,509±11,299, n=14). Dissociated cells were plated in 8 well chamber slides (Nunc, Naperville, USA) at 7.5×10^4 cells/well in 0.3 ml AIM V medium supplemented with N-2 (1:100, Gibco BRL Life Technologies, Gaithersburg, USA), 500 UI/ml penicillin and 500 μg/ml streptomycin. Laminin-1 (160 μg/ml), purified from murine Engelbreth-Holm-Swarm tumor basement membrane (Becton Dickinson Labware, Bedford, USA), was overlayed on cells in the presence of various growth factors. Cultures were incubated in 10% CO2 90% air at 37° C., for up to 6 days. Recombinant human BMP 6 and BMP 5, recombinant human TGF-β1 and recombinant activin A were purchased from R&D Systems (Minneapolis, USA). These factors, dissolved at a concentration of 10 ng/μl in mouse tonicity phosphate buffered saline (PBS) containing 0.1% w/v bovine serum albumin (BSA), were added at the start of culture. Phase contrast images of colonies were photographed with Olympus IX70 digitized camera.
Colony formation was assessed at day 6 of culture. A colony was defined as a cellular sphere ≧30 μm in diameter, which contained more than 20 cells. The number of colonies per well was counted directly under a inverted microscope at ×10. Colony counts were performed using a blind design.

[2] = test system: 13.5 dpc fetal mouse pancreas cells; assay: Colony formation of 13.5 dpc fetal mouse pancreas cells cultured with BMPs and laminin-1; settings: 13.5 dpc fetal pancreas cells
Protocol: Dissociated fetal pancreas cells were prepared from 13.5 dpc CBA mice. Pregnant mice at 13.5 dpc were killed by cervical dislocation and fetuses collected into ice cold sterile mouse tonicity phosphate-buffered saline (MTPBS). Fetal pancreata were harvested under an Olympus dissection microscope into RPMI 1640 medium and dissociated in a shaking water bath at 37° C. for 11 mins in Ca^2+/Mg^2+-free PBS containing 0.5% v/v trypsin/EDTA as described for testis by Bucci et al. (1986). After dissociation, trypsin was inactivated by addition of 8% w/v bovine serum albumin (BSA, fraction V) (Sigma, St. Louis, USA). The tissue was aspirated several times in a pipette, passed through a 27 gauge needle to make a single cell suspension and then rinsed in 10 μg/ml DNAse I (Promega, Madison, USA) in RPMI 1640 for 10 mins to reduce cellular aggregates. Cell suspensions were filtered through a 70-100 μm steel mesh, centrifuged at 400×g for 5 mins and the supernatant discarded. The cell pellet was resuspended in HYBRIDOMA medium and stored on ice. Cells were counted under a haemocytometer and viability was determined by exclusion of 0.2% v/v trypan blue dye. Pancreatic cells were plated in 8 chamber slides (Nunc) at 1.5×10^4 cells/well in 0.3 ml HYBRIDOMA medium 500 UI/ml penicillin and 500 μg/ml streptomycin. The cells were cultured in 10% v/v CO2, 90% v/v air at 37° C. with 100% humidity for four days in the presence of factors such as laminin-1 and BMPs.
After four days in culture, cells were washed twice with warm MT-PBS and fixed with a 4% v/v paraformaldehye for 10 mins. In some cases, 100 μM BrdU was added to label proliferating cells 12 hours before fixation and detection with monoclonal antibody to BrdU and FITC-labelled rabbit anti-mouse immunoglobulin. For immunoperoxidase staining, endogenous peroxidase was blocked by 3% v/v H2O2 in methanol for 8 mins and, prior to addition of primary antibody, non-specific protein binding was blocked by incubation for at least 30 mins in MTPBS containing 2% w/v BSA or 2% v/v normal rabbit serum. Controls were performed by replacing primary antibody with pre-immune serum from the appropriate species. Tissue sections or cells were incubated with primary antibodies for 90 min RT, followed by three thorough washes with MTPBS. For immunoperoxidase staining, horseradish peroxidase-conjugated rabbit anti-guinea pig, swine anti-rabbit or rabbit anti-mouse immunoglobulins (Dako) diluted 1:80 were added for 30 mins at RT followed by thorough washes; colour was developed with 3,3′-diaminobenzidine/H2O2 for 4-8 mins and slides counterstained with haematoxylin.
A pancreatic cell colony was defined as a spherical collection of 20 cells. Colonies were counted under a×10 power objective with an eyepiece graticule.

[3] = test system: E15.5 CBA mouse fetal pancreas cells; assay: Cystic colony formation of E15.5 fetal mouse pancreas cells in laminin-1 overlay culture; settings: BMP alone
C2C12 myoblasts = assay: C2C12 cell BMP bioassay (transformation of myoblasts into alkaline phosphatase-containing osteoblasts); settings: conditioned medium of stably transfected CHO cells, compared to medium of untransfected CHO cells
Protocol: BMP activity was measured in the C2C12 cell bioassay, in which BMPs transform C2C12 myoblasts into alkaline phosphatase-containing osteoblasts (Katagiri et al., 1994). Briefly, CHO cells were plated at a density of around 5×10^6 per 75 cm^2 flask in serum-free HYBRIDOMA medium (Gibco BRL Life Technology) (SFHM) containing 10% v/v FCS. Once the cells had reached confluency, the medium was removed, the cells washed twice with SFHM and 10 ml of SFHM then added to each flask. The cells were cultured for four days and the conditioned medium collected, filtered through a 2 micron filter and stored at 4° C.
2×10^3 C2C12 cells were plated into each well of a 96-well tissue culture plate in DME/10% v/v FCS. Twenty-four hours later, the medium was removed and replaced with 100 μl SFHM/1% v/v FCS. 50 μl of each conditioned medium was added in duplicate to the top row of the 96-well plate and the volume of these wells then made up to 200 μl. Using a multi-channel pipette, 100 μl from each well was then serially transferred to subsequent rows thus diluting the conditioned medium 2-fold with each transfer. After incubation for five days, the media were discarded and the cells washed with normal saline. Cells were lysed for 10 mins at room temperature (RT) in 100 μl 0.5% v/v TritonX-100 and 100 mM diethanolamine (pH 9.5) in normal saline. To each well was then added an aqueous solution containing 10 mM diethanolamine, 1 mg/ml p-nitrophenyl phosphate (PNPP) and 0.5 mM MgCl2. The yellow reaction product catalyzed by alkaline phosphatase was allowed to develop for 10-60 mins before reading absorption at 415 nm.

Molecule | BMP 6-induced colony formation ([1]; 100 ng/ml against BMP 6 10 ng/ml, laminin-1 160 μg/ml, p<0.01 (FIG. 10B)) | colony formation relative to laminin-1 alone ([1]; 100 ng/ml, laminin-1 160 μg/ml (FIG. 10A)) | proliferation or colony formation, candidate growth factors individually [2] | concentration of maximal stimulation of colony formation ([1]; laminin-1 160 μg/ml) | formation of cystic colonies in the presence of laminin-1 ([1]; laminin-1 160 μg/ml) | colony formation in the absence of laminin-1 [3] | BMP activity of conditioned medium (alkaline phosphatase activity of C2C12 cells) (C2C12 myoblasts)
B1 | antagonized | suppressed colony formation to levels below that observed with laminin-1 alone | unable to promote proliferation or colony formation |  |  |  | 
B2 |  |  |  | 10 ng/mL | synergized with laminin-1 to promote formation of cystic colonies | no effect | significant BMP activity was never detected
B3 |  |  |  | 100 ng/mL | synergized with laminin-1 to promote formation of cystic colonies | no effect | 
